Experimental data taken from patent US20190194280A1.

The binders below were run against Immune sera of baboons immunized with UBI AD vaccine (assay: competitive inhibition ELISA).

Row | Binder | % inhibition at 0 µg/mL [%] | % inhibition at 0.25 µg/mL [%] | % inhibition at 0.5 µg/mL [%] | % inhibition at 1 µg/mL [%] | % inhibition at 2 µg/mL [%] | % inhibition at 8 µg/mL [%] | % inhibition at 32 µg/mL [%]
1 | LVFFAEDVGSNKGAIIGLMVGGVVIA [Aβ17-42 (Aβ or APP 770 (L688-A713))] | 0 | 5 | 9 | 10 | 5 | 0 | 7

The binders below were run against Serum samples collected at week 16 from patients immunized with UBI AD vaccine (UB-311) (assay: comp. ELISA, serum P104).

Row | Binder | IC50-based peak height
2 | HDSGYEVHHQ [Aβ6-15 or APP 770 (H677-Q686)] | 0
3 | VKMDAEFRHD [Aβ-3-7 or APP 770 (V669-D678)] | 0
4 | TEEISEVKMD [Aβ-9-1 or APP 770 (T663-D672)] | 0
5 | SEVKMDAEFR [Aβ-5-5 or APP 770 (S667-R676)] | 0

The binders below were run against Serum samples collected at week 16 from patients immunized with UBI AD vaccine (UB-311) (assay: comp. ELISA, serum P201).

Row | Binder | IC50-based peak height
6 | HDSGYEVHHQ [Aβ6-15 or APP 770 (H677-Q686)] | 0
7 | VKMDAEFRHD [Aβ-3-7 or APP 770 (V669-D678)] | 0
8 | TEEISEVKMD [Aβ-9-1 or APP 770 (T663-D672)] | 0
9 | SEVKMDAEFR [Aβ-5-5 or APP 770 (S667-R676)] | 0

What follows are binders tested against Serum samples collected at week 16 from patients immunized with UBI AD vaccine (UB-311) (assay: comp. ELISA, serum P105).

Row | Binder | IC50-based peak height
10 | HDSGYEVHHQ [Aβ6-15 or APP 770 (H677-Q686)] | 0
11 | VKMDAEFRHD [Aβ-3-7 or APP 770 (V669-D678)] | 0
12 | TEEISEVKMD [Aβ-9-1 or APP 770 (T663-D672)] | 0
13 | SEVKMDAEFR [Aβ-5-5 or APP 770 (S667-R676)] | 0

Each binder was assayed against Serum samples collected at week 16 from patients immunized with UBI AD vaccine (UB-311) (assay: comp. ELISA, serum P206).

Row | Binder | IC50-based peak height
14 | HDSGYEVHHQ [Aβ6-15 or APP 770 (H677-Q686)] | 0
15 | VKMDAEFRHD [Aβ-3-7 or APP 770 (V669-D678)] | 0
16 | TEEISEVKMD [Aβ-9-1 or APP 770 (T663-D672)] | 0
17 | SEVKMDAEFR [Aβ-5-5 or APP 770 (S667-R676)] | 0

The binders below were run against Serum samples collected at week 16 from patients immunized with UBI AD vaccine (UB-311) (assay: comp. ELISA, serum P103).

Row | Binder | IC50-based peak height
18 | HDSGYEVHHQ [Aβ6-15 or APP 770 (H677-Q686)] | 0
19 | VKMDAEFRHD [Aβ-3-7 or APP 770 (V669-D678)] | 0
20 | TEEISEVKMD [Aβ-9-1 or APP 770 (T663-D672)] | 0
21 | SEVKMDAEFR [Aβ-5-5 or APP 770 (S667-R676)] | 0

These binders were tested against Serum samples collected at week 16 from patients immunized with UBI AD vaccine (UB-311) (assay: comp. ELISA, serum P102).

Row | Binder | IC50-based peak height
22 | HDSGYEVHHQ [Aβ6-15 or APP 770 (H677-Q686)] | 0
23 | VKMDAEFRHD [Aβ-3-7 or APP 770 (V669-D678)] | 0
24 | TEEISEVKMD [Aβ-9-1 or APP 770 (T663-D672)] | 0
25 | SEVKMDAEFR [Aβ-5-5 or APP 770 (S667-R676)] | 0

What follows are binders tested against Serum samples collected at week 16 from patients immunized with UBI AD vaccine (UB-311) (assay: comp. ELISA, serum P210).

Row | Binder | IC50-based peak height
26 | HDSGYEVHHQ [Aβ6-15 or APP 770 (H677-Q686)] | 0
27 | VKMDAEFRHD [Aβ-3-7 or APP 770 (V669-D678)] | 13
28 | TEEISEVKMD [Aβ-9-1 or APP 770 (T663-D672)] | 0
29 | SEVKMDAEFR [Aβ-5-5 or APP 770 (S667-R676)] | 0

The binders below were run against Serum samples collected at week 16 from patients immunized with UBI AD vaccine (UB-311) (assay: comp. ELISA, serum P203).

Row | Binder | IC50-based peak height
30 | HDSGYEVHHQ [Aβ6-15 or APP 770 (H677-Q686)] | 0
31 | VKMDAEFRHD [Aβ-3-7 or APP 770 (V669-D678)] | 0
32 | TEEISEVKMD [Aβ-9-1 or APP 770 (T663-D672)] | 0
33 | SEVKMDAEFR [Aβ-5-5 or APP 770 (S667-R676)] | 0

These binders were tested against Serum samples collected at week 16 from patients immunized with UBI AD vaccine (UB-311) (assay: comp. ELISA, serum P207).

Row | Binder | IC50-based peak height
34 | HDSGYEVHHQ [Aβ6-15 or APP 770 (H677-Q686)] | 0
35 | VKMDAEFRHD [Aβ-3-7 or APP 770 (V669-D678)] | 0
36 | TEEISEVKMD [Aβ-9-1 or APP 770 (T663-D672)] | 0
37 | SEVKMDAEFR [Aβ-5-5 or APP 770 (S667-R676)] | 0

What follows are binders tested against Serum samples collected at week 16 from patients immunized with UBI AD vaccine (UB-311) (assay: comp. ELISA, serum P108).

Row | Binder | IC50-based peak height
38 | HDSGYEVHHQ [Aβ6-15 or APP 770 (H677-Q686)] | 0
39 | VKMDAEFRHD [Aβ-3-7 or APP 770 (V669-D678)] | 0
40 | TEEISEVKMD [Aβ-9-1 or APP 770 (T663-D672)] | 0
41 | SEVKMDAEFR [Aβ-5-5 or APP 770 (S667-R676)] | 0

Each binder was assayed against Serum samples collected at week 16 from patients immunized with UBI AD vaccine (UB-311) (assay: comp. ELISA, serum P107).

Row | Binder | IC50-based peak height
42 | HDSGYEVHHQ [Aβ6-15 or APP 770 (H677-Q686)] | 0
43 | VKMDAEFRHD [Aβ-3-7 or APP 770 (V669-D678)] | 0
44 | TEEISEVKMD [Aβ-9-1 or APP 770 (T663-D672)] | 0
45 | SEVKMDAEFR [Aβ-5-5 or APP 770 (S667-R676)] | 0

What follows are binders tested against Serum samples collected at week 16 from patients immunized with UBI AD vaccine (UB-311) (assay: comp. ELISA, serum P106).

Row | Binder | IC50-based peak height
46 | HDSGYEVHHQ [Aβ6-15 or APP 770 (H677-Q686)] | 0
47 | VKMDAEFRHD [Aβ-3-7 or APP 770 (V669-D678)] | 0
48 | TEEISEVKMD [Aβ-9-1 or APP 770 (T663-D672)] | 0
49 | SEVKMDAEFR [Aβ-5-5 or APP 770 (S667-R676)] | 0

What follows are binders tested against Serum samples collected at week 16 from patients immunized with UBI AD vaccine (UB-311) (assay: comp. ELISA, serum P209).

Row | Binder | IC50-based peak height
50 | HDSGYEVHHQ [Aβ6-15 or APP 770 (H677-Q686)] | 0
51 | VKMDAEFRHD [Aβ-3-7 or APP 770 (V669-D678)] | 0
52 | TEEISEVKMD [Aβ-9-1 or APP 770 (T663-D672)] | 0
53 | SEVKMDAEFR [Aβ-5-5 or APP 770 (S667-R676)] | 0

The binders below were run against Serum samples collected at week 16 from patients immunized with UBI AD vaccine (UB-311) (assay: comp. ELISA, serum P101).

Row | Binder | IC50-based peak height
54 | HDSGYEVHHQ [Aβ6-15 or APP 770 (H677-Q686)] | 0
55 | VKMDAEFRHD [Aβ-3-7 or APP 770 (V669-D678)] | 31
56 | TEEISEVKMD [Aβ-9-1 or APP 770 (T663-D672)] | 0
57 | SEVKMDAEFR [Aβ-5-5 or APP 770 (S667-R676)] | 10

These binders were tested against Serum samples collected at week 16 from patients immunized with UBI AD vaccine (UB-311) (assay: comp. ELISA, serum P208).

Row | Binder | IC50-based peak height
58 | HDSGYEVHHQ [Aβ6-15 or APP 770 (H677-Q686)] | 0
59 | VKMDAEFRHD [Aβ-3-7 or APP 770 (V669-D678)] | 0
60 | TEEISEVKMD [Aβ-9-1 or APP 770 (T663-D672)] | 0
61 | SEVKMDAEFR [Aβ-5-5 or APP 770 (S667-R676)] | 0

What follows are binders tested against Serum samples collected at week 16 from patients immunized with UBI AD vaccine (UB-311) (assay: comp. ELISA, serum P109).

Row | Binder | IC50-based peak height
62 | HDSGYEVHHQ [Aβ6-15 or APP 770 (H677-Q686)] | 0
63 | VKMDAEFRHD [Aβ-3-7 or APP 770 (V669-D678)] | 0
64 | TEEISEVKMD [Aβ-9-1 or APP 770 (T663-D672)] | 0
65 | SEVKMDAEFR [Aβ-5-5 or APP 770 (S667-R676)] | 0

What follows are binders tested against Serum samples collected at week 16 from patients immunized with UBI AD vaccine (UB-311) (assay: comp. ELISA, serum P204).

Row | Binder | IC50-based peak height
66 | HDSGYEVHHQ [Aβ6-15 or APP 770 (H677-Q686)] | 0
67 | VKMDAEFRHD [Aβ-3-7 or APP 770 (V669-D678)] | 1
68 | TEEISEVKMD [Aβ-9-1 or APP 770 (T663-D672)] | 0
69 | SEVKMDAEFR [Aβ-5-5 or APP 770 (S667-R676)] | 0

These binders were tested against Serum samples collected at week 16 from patients immunized with UBI AD vaccine (UB-311) (assay: comp. ELISA, serum P205).

Row | Binder | IC50-based peak height
70 | HDSGYEVHHQ [Aβ6-15 or APP 770 (H677-Q686)] | 0
71 | VKMDAEFRHD [Aβ-3-7 or APP 770 (V669-D678)] | 0
72 | TEEISEVKMD [Aβ-9-1 or APP 770 (T663-D672)] | 0
73 | SEVKMDAEFR [Aβ-5-5 or APP 770 (S667-R676)] | 0

Each binder was assayed against Serum samples collected at week 16 from patients immunized with UBI AD vaccine (UB-311) (assay: comp. ELISA, serum P202).

Row | Binder | IC50-based peak height
74 | HDSGYEVHHQ [Aβ6-15 or APP 770 (H677-Q686)] | 0
75 | VKMDAEFRHD [Aβ-3-7 or APP 770 (V669-D678)] | 0
76 | TEEISEVKMD [Aβ-9-1 or APP 770 (T663-D672)] | 0
77 | SEVKMDAEFR [Aβ-5-5 or APP 770 (S667-R676)] | 0
